The target in the test is UB (ubiquitin). The experiment in a line: SEC-MALS. The settings on record: reference: unphosphorylated PARKIN; sites S65. On the technique in general: In gel filtration, larger molecules generally elute earlier.

As to PARKIN (from UniProt O60260) p-PARKIN, the “other: mass increase on p-UB addition” value was “same; reference ~7”.

Values taken from paper PMC4254048.
